The values that follow come from patent US9486519B2, “Use of FLT3 ligand for enhancing immune responses in RNA immunization” (BioNTech AG, priority 2008, dated 2016).

In test [1] the test system is B16 Ova tumors. The experiment in a line: Therapeutic vaccination against B16 Ova tumors, tumor volume. Format: in vivo, C57BL/6 mice. On the procedure:
Examination of tumor growth. To this end, four groups (n=10) of C57BL/6 mice were formed. All mice received on day 0 a s.c. injection of B16 Ova tumor cells (2×10^5). Hereof a control group was only treated by IgG4 injection (15 μg; d3, d7, d14, d18). […] The tumor volume was determined after tumor inoculation on a regular basis (d7, d10, d13, d16, d19, d22). The average tumor volume [mm^3] on the days following tumor inoculation [day] is shown.
To this end four groups (n=10) of C57BL/6 mice were formed. All mice received on day 0 a s.c. injection of 2×10^5 B16 Ova tumor cells (Bellone et al., J. Immunol., 2000, 165:2651-2656). Thereof a control group was only treated by injection of IgG4 (15 μg; d3, d7, d14, d18). […] The tumor volume was determined on the following days after tumor inoculation: d7, d10, d13, d16, d19 and d22 (d=day).

For another test, the system named is dendritic cells. The experiment in a line: Dendritic cell subpopulations in spleen and lymph nodes by flow cytometry after i.p. Flt3-L. Format: in vivo, C57Bl/6 mice. The settings on record: 10 μg i.p. d0, d3; day 10. How it is done:
C57Bl/6 mice (n=3) were administered 10 μg Flt3L twice (d0, d3) intraperitoneally. On day 10 the inguinal lymph nodes were removed, the cells were stained with corresponding antibodies and the subpopulations of the dendritic cells were quantified by flow cytometry. The data shown represent the average cell count of the subpopulation *: p<0.05 and **: p<0.001 in the two-sided unpaired t-test.
(§1) To test the effects of application of human Flt3 ligand on the efficiency of RNA-based immunizations, the changes in the cellular composition of lymph nodes and spleen were first investigated in the mouse model. For this, various application schemes (2×, 3×, 5×10 μg) of recombinant Flt3-L were applied intraperitoneally and the cellularity was determined 10-12 days after the first injection. […] This increase could be shown for all relevant subpopulations of the dendritic cells in spleen and lymph nodes (FIG. 2).
In general terms: In flow cytometry, cells or beads pass a laser one at a time.

For test [2], the system named is RNA uptake in the lymph nodes. Kind of test: Effect of Flt3-L on RNA uptake in lymph nodes, in-vivo bioluminescence. On the set-up: species or system C57BL/6 mice. The settings on record: 10 μg i.p. day 0 and 3; 20 μg luciferase-RNA intranodally day 10. How it is done:
(f) Effect of Flt3-L on RNA uptake. C57BL/6 mice (n=8) were treated i.p. on day 0 and 3 with 10 μg, Flt3-L, or were not treated in the control group. On day 10 the mice were injected intranodally with 20 μg luciferase-RNA. 24 h later the luciferase signal was measured by in-vivo bioluminescence.
C57BL/6 mice (n=8) were treated i.p. on day 0 and 3 with 10 μg Flt3-L or were not treated in the control group. On day 10 the mice were injected intranodally with 20 μg luciferase-RNA. 24 h later the luciferase signal was measured by in-vivo bioluminescence. […] The bars give the mean value of all measured values for a group. The experiment is representative for 3 independent experiments. Statistics: Student's t-test.

The subject of test [3] is SIINFEKL epitope-specific CD8+ T cells. The experiment in a line: Tetramer and intracellular IFNγ measurement after Flt3-L pretreatment and intranodal RNA immunization. Format: in vivo, C57Bl/6 mice. Conditions: dose above 2×10 μg; data not shown.
For test [4], the system named is B16 Ova tumors. The experiment in a line: Therapeutic vaccination against B16 Ova tumors, survival. Format: in vivo, C57BL/6 mice. How it is done:
To examine the synergy of combining Flt3L administration with RNA vaccination, a therapeutic tumor experiment was performed. To this end, 4 groups (n=10) of C57BL/6 mice were formed. All mice received on day 0 a s.c. injection of B16 Ova cells (2×10^5). Hereof a control group was only treated by IgG4 injection (10 μg; d3, d7, d14, d17). […] The Kaplan Meier plot of the survival rate of mice is shown.
To investigate the synergy of the combination of Flt3L administration together with RNA vaccination a therapeutic tumor experiment was performed. To this end four groups (n=10) of C57BL/6 mice were formed. All mice received on day 0 a s.c. injection of 2×10^5 B16 Ova tumor cells (Bellone et al., J. Immunol., 2000, 165:2651-2656). Thereof a control group was only treated by IgG4 injection (10 μg; d3, d7, d14, d17).

Test [5] concerns antigen-specific CD8+ T lymphocytes. Kind of test: Effects of different Flt3L on the stimulation of naive T cells, MHC multimer measurement in peripheral blood. The settings on record: 0.4 mol i.p. day 0, +3; 20 μg SIINFEKL coding RNA day +7, +10; blood day +15. Format: in vivo, C57BL/6 mice. How it is done:
These mice were immunized intralymphatically on day +7, +10 with 20 μg […] coding RNA. The control group remained untreated (n=2). On day +15 the frequency of antigen-specific CD8^+ T lymphocytes was measured in peripheral blood by means of MHC multimer measurement.
To this end a product recombinantly expressed in bacteria (Peprotech Flt3L) and a product expressed in human HEK293 cells (Humanzyme Flt3L) was used; cf. Example 7. Human IgG4 served as control.
These mice were immunized intralymphatically on day +7, +10 with 20 μg […] coding RNA. The control group remained untreated (n=2). On day +15 the frequency of antigen-specific CD8^+ T lymphocytes was measured by flow cytometry in peripheral blood by means of MHC multimer measurement (Beckman Coulter).
The mice were administered intraperitoneally Flt3L in equimolar amounts (day 0, +3). In addition, mice were immunized intranodally twice with […] coding RNA (+7, +10). The success of the immunization was quantified by flow cytometry on day +15 by means of tetramer staining.

The test system of another test is lymph nodes and spleen. The experiment in a line: Cellularity of lymph nodes and spleen after i.p. Flt3-L. The test is classed as in vivo, C57Bl/6 mice. The settings on record: 2x, 3x, 5x 10 μg i.p.; 10-12 days after the first injection. On the procedure: C57Bl/6 mice (n=3-9) were administered 10 μg Flt3L intraperitoneally at different timepoints (d1 to d3 or d1, d1, d3 or d0, d3). On day 10 the lymph nodes (LN) and the spleen were removed and the cell count was determined. The data shown represent the average cell count +SEM of the lymph nodes. *: p<0.05 in Tukey's multiple comparison test.
as §1

Entries after “also recorded” stand apart in the source; their conditions may differ.

B1: Flt3L-IgG4: recombinant human Flt3 ligand prepared as a fusion protein with IgG4, SEQ ID NO: 6, expressed in HEK293 cells (protein)
chain: MTVLAPAWSPTTYLLLLLLLSSGLSGTQDCSFQHSPISSDFAVKIRELSDYLLQDYPVTVASNLQDEELCGGLWRLVLAQRWMERLKTVAGSKMQGLLERVNTEIHFVTKCAFQPPPSCLRFVQTNISRLLQETSEQLVALKPWITRQNFSRCLELQCQPDSSTLPPPWSPRPLEATAPTAPQPPRSPPCPSCPAPEFLGGPSVFLFPPKPKDTLMISRTPEVTCVVVDVSQEDPEVQFNWYVDGVEVHNAKTKPREEQFNSTYRVVSVLTVLHQDWLNGKEYKCKVSNKGLPSSIEKTISKAKGQPREPQVYTLPPSQEEMTKNQVSLTCLVKGFYPSDIAVEWESNGQPENNYKTTPPVLDSDGSFFLYSRLTVDKSRWQEGNVFSCSVMHEALHNHYTQKSLSLSPGK
modifications: Fusionsprotein
With B1, the tumor growth result in the test with B16 Ova tumors [1] (Flt3L administration combined with RNA vaccination) is on record as “complete suspension of tumor growth”; in the test on B16 Ova tumors [1] (only Flt3L administered, 15 μg), “slight delay of tumor growth”. For the same molecule, the “effect of the combination with intranodal vaccination of RNA” value in the test on B16 Ova tumors [1] (tumor volume) and with B16 Ova tumors [4] (survival) was “synergistic effect” throughout. Besides, in the test with dendritic cells, the “dendritic cells in spleen and lymph nodes” value is reported as “increase in dendritic cells”. In test [2], the “RNA uptake in the lymph nodes (in-vivo bioluminescence)” value was “does not have an inhibitory effect”. In addition, the “immune response on increase of the Flt3-L dose” value in test [3] is “not correlated with a further intensification of the immune response”. In the test on B16 Ova tumors [4] (Flt3L-IgG4 15 μg in combination with intranodal RNA vaccination 20 μg), the “portion of mice surviving in the long term” value was “about 80%”. Moreover, the “survival in the long term” value in the test on B16 Ova tumors [4] (Flt3L-IgG4 15 μg without RNA vaccination) was 10%. In the test on B16 Ova tumors [4] (Flt3L-IgG4 without RNA vaccination), the “therapeutic effect on tumor growth” value is listed as “minimal therapeutic effect on tumor growth”. In addition, the “adjuvant effect (frequency of antigen-specific CD8+ T lymphocytes)” value in test [5] is given as “significant adjuvant effect; also recorded: strongest effect”. Moreover, in the test on lymph nodes and spleen, the “cellularity in spleen and lymph nodes” value is “increase in cellularity in spleen and lymph nodes”.
